From paper PMC8860596 (Nucleic Acids Research, 2021)

Key:
[1] = target: T1, CreYin (P1 phage, UniProt P06956 1-343, D33A;A36V;R192A); test: cryo-EM
[2] = target: T2, CreYin;CreYang (P1 phage;P1 phage, UniProt P06956;P06956 1-343;1-343, D33A;A36V;R192A|R72E;L115D;R119D); test: cryo-EM
[3] = target: T3, Cre K201A (P1 phage, UniProt P06956 1-343, K201A); test: cryo-EM
[4] = target: Cre deltaN (CreΔαN) (P1 phage, UniProt P06956 1-330); test: EMSA
[5] = target: T3, Cre K201A; test: EMSA
[6] = target: T4, CreYang (P1 phage, UniProt P06956 1-343, R72E;L115D;R119D); test: EMSA
[7] = target: T1, CreYin; test: EMSA
[8] = target: T2, CreYin;CreYang; test: EMSA
[9] = target: T1, CreYin; test: native MS
[10] = target: T4, CreYang; test: native MS
[11] = target: T2, CreYin;CreYang; test: native MS
[12] = target: the molecule itself; test: native gel or EMSA

GCATAACTTCGTATAGCATATGCGAAGCATATGCTATACGAAGTTATGC (structured_DNA) [loxA hairpin]: binds [1].

B1: loxP-44 (dsDNA)
DNA 1: CGGCGATAACTTCGTATAATGTATGCTATACGAAGTTATGCGGC
DNA 2: GCCGCATAACTTCGTATAGCATACATTATACGAAGTTATCGCCG
B1: binds [2]; binds [3].

B2: loxP-54 (dsDNA)
DNA 1: CGAGTGGCCGATAACTTCGTATAATGTATGCTATACGAAGTTATGCGGCGTGAC
DNA 2: GTCACGCCGCATAACTTCGTATAGCATACATTATACGAAGTTATCGGCCACTCG
B2: binds [4]; binds [5]; binds [6]. B2: binds [7]; binds [8].

B3: loxP-38 (dsDNA)
DNA 1: CGATAACTTCGTATAATGTATGCTATACGAAGTTATGC
DNA 2: GCATAACTTCGTATAGCATACATTATACGAAGTTATCG
B3: binds [9]; binds [10]; binds [11].

B4: Cre recombinase K201A (cleavage-deficient variant) (enzyme, P1 phage)
chain: MSNLLTVHQNLPALPVDATSDEVRKNLMDMFRDRQAFSEHTWKMLLSVCRSWAAWCKLNNRKWFPAEPEDVRDYLLYLQARGLAVKTIQQHLGQLNMLHRRSGLPRPSDSNAVSLVMRRIRKENVDAGERAKQALAFERTDFDQVRSLMENSDRCQDIRNLAFLGIAYNTLLRIAEIARIRVKDISRTDGGRMLIHIGRTATLVSTAGVEKALSLGVTKLVERWISVSGVADDPNNYLFCRVRKNGVAAPSATSQLSTRALEGIFEATHRLIYGAKDDSGQRYLAWSGHSARVGAARDMARAGVSIPEIMQAGGWTNVNIVMNYIRNLDSETGAMVRLLEDGD
B4 was tested, and the “stoichiometry N” value [12] was 4.
